According to patent US10494415B2, “Insulin-like growth factor 2 (IGF2) binding agents” (Cancer Research Technology Limited, priority 2015, dated 2019):

Experiments:
SKNMC-IGF2^1-67 cells = assay: Growth/viability of IGF2-autocrine SKNMC cells in culture (MTS); assay type: cell-based, human
Source text: IGF2 sensitive autocrine cell line SKNMC-IGF2^67 was generated from the Ewing sarcoma cell line SKNMC by retroviral infection with constructs containing IRES-luciferase. Autocrine growth and signalling function of the SKNMC line, including inhibition by IGF2-TRAP, was confirmed in culture using an MTS reagent (Cell Titer 96 Aqueous One Solution cell proliferation assay, Promega). For xenografts, approximately 5×10^6 SKNMC-IGF2^67 cells harvested during the growth phase of sub-confluent cell cultures were then mixed with matrigel (50:50 v/v, 100 μl/mouse) and injected (sub-cutaneous) into CD-1® (Crl:NU-1 Foxn1nu) female mice, 24 hours after establishing ALZET® mini-pump placement delivering a single concentration 40 mg kg-1 per week either IGF2-TRAP or PBS vehicle control. Tumour growth was monitored with both caliper measurements and bioluminescence. The latter was performed with a Bruker Xtreme 2D optical system 15 minutes (10 second exposure) following luciferin injection (100 μl per 20 g body weight). Tumours were excised at 28 days or when size was >1000 mm3. Fixation in formalin, embedding in paraffin and Hematoxylin and Eosin (H&E) staining was done using standard protocols. Apoptotic area was quantified using automated image analysis of brightfield images in ImageJ, applying H AEC color deconvolution filter and automated thresholding. […]

[1] = test system: SKNMC-IGF2^1-67 xenografts; assay: IGF2 dependent human cancer cell xenografts; assay type: in vivo, mouse; details: for Xenograft growth: CD-1 nude mice, 40 mg kg-1 per week by osmotic mini-pump
Source text: IGF2 sensitive autocrine cell line SKNMC-IGF2^67 was generated from the Ewing sarcoma cell line SKNMC by retroviral infection with constructs containing IRES-luciferase. Autocrine growth and signalling function of the SKNMC line, including inhibition by IGF2-TRAP, was confirmed in culture using an MTS reagent (Cell Titer 96 Aqueous One Solution cell proliferation assay, Promega). For xenografts, approximately 5×10^6 SKNMC-IGF2^67 cells harvested during the growth phase of sub-confluent cell cultures were then mixed with matrigel (50:50 v/v, 100 μl/mouse) and injected (sub-cutaneous) into CD-1® (Crl:NU-1 Foxn1nu) female mice, 24 hours after establishing ALZET® mini-pump placement delivering a single concentration 40 mg kg-1 per week either IGF2-TRAP or PBS vehicle control. Tumour growth was monitored with both caliper measurements and bioluminescence. The latter was performed with a Bruker Xtreme 2D optical system 15 minutes (10 second exposure) following luciferin injection (100 μl per 20 g body weight). Tumours were excised at 28 days or when size was >1000 mm3. Fixation in formalin, embedding in paraffin and Hematoxylin and Eosin (H&E) staining was done using standard protocols. Apoptotic area was quantified using automated image analysis of brightfield images in ImageJ, applying H AEC color deconvolution filter and automated thresholding. Serum was also collected at the time of culling.

SKNMC-IGF2^104 cells = assay: IGF2-TRAP synthetic lethality screen (resazurin viability); assay type: cell-based, human; details: fixed concentration of IGF2-TRAP alone, assay end point of 72 hrs
Procedure: For synthetic lethality screens (Target Discovery Institute, University of Oxford), either 2,500 or 5,000 SKNMC-IGF2104-IRES-luc cells were plated in medium containing 0.5% charcoal stripped FBS in 384 well plates and the IGF2-TRAP was added 24 h later to half of the plates. Using automated dispensing 307 oncology drugs that have been tested in man (TDI expanded Oncology Drug library) were added to cells 3 hrs later 10 μM, 1 μM, 100 nM and 10 nM, in the presence and absence of 250 nM IGF2-TRAP. After 48 hr of incubation, resazurin was added to a final concentration of 10 μg/mL and the fluorescence (Ex: 560 nm, Em: 590 nm) recorded at 2 hr. […] Pearson's product-moment correlation coefficient (r) was calculated to determine replicate correlation. […]
The interaction score was calculated where v was the viability readout for the drug condition, x^− was the sample mean of the negative controls and s was the sample standard deviation of the negative controls, z was calculated as z_treatment=(v−x^−)/s. z_(no_IT) was calculated from PBS control plates, comparing ‘drug d’ to same-plate negative controls ‘cells+DMSO’. z_IT was calculated from treated plates, comparing ‘drug d+IGF2-TRAP (IT)’ to same-plate negative controls ‘cells+IT+DMSO’. […] Interaction scores were calculated for each replicate r_(d,1)/r_(d,2)/r_(d,3) independently. […]

[2] = test system: IGF2^1-67-induced hypoglycaemia; assay: IGF2-induced hypoglycaemia mouse model; assay type: in vivo; details: co-injected
Source text: All animal experiments were approved by the animal use ethical committee of Oxford University and fully complied with UK Home Office guidelines (PPL 30/2695). Wild-type C57BL/6J and 129S2 mice were used throughout. Mice were anaesthetised using a rising concentration of isoflurane in oxygenated air and maintained using 2% isoflurane with 2 L min^−1 oxygen. Blood glucose measurements were taken using an Advantage diabetic glucose meter (Roche Diagnostics, Burgess Hill, UK). In order to test the direct inhibition of IGF2-induced hypoglycaemia by Fc-domain 11^AB5, blood glucose levels were allowed to normalise for 30 min prior to taking a baseline blood glucose reading, then either 1 mg kg^−1 IGF2 only (R&D systems), […], Fc-domain 11^RHH, or Fc-domain 11^I1572A ([…]) was injected. Blood glucose measurements were taken every 10 min for the following hour. For the Fc-domain 11^AB5 mouse preloading experiment, 11.7 mg kg^−1 Fc-domain 11^AB5 or PBS, as negative control, was injected immediately after induction of anaesthesia, 30 mins later a baseline blood glucose reading was taken and 1 mg kg^−1 IGF2 ([…]) was injected, readings were then taken every 10 min for the following hour. For the mouse IGF2 preloading experiment, 1 mg kg^−1 IGF2 was injected immediately after induction of anaesthesia, 30 min later a baseline blood glucose reading was taken and either 11.7 mg kg^−1 Fc-domain 11^AB5 ([…]) or PBS was injected, readings were then taken every 10 min for the following hour.

B1: Fc-domain 11^AB5-RHH: Fc-fusion of domain 11^AB5-RHH (IGF2-TRAP); IgG2 Fc form purified from CHO cells used for xenografts (protein)
chain: NEHDDCQVTNPSTGHLFDLSSLSGRAGFTAAYAKGWGVYMSICGENENCPPGVGACFGRTRISVGKANKRLRYVDQVLQLVYKDGSHCPSKHGLSYKSVISFVCRPEAGPTNRPMLISLDKQTCTLFFSWHTPLACEQAT
modifications: left off: a dimerising Fc or GST
notes: Fc-fusion of domain 11^AB5-RHH (IGF2-TRAP); IgG2 Fc form purified from CHO cells used for xenografts
Growth of SKNMC cells expressing constitutive IGF2^1-67 in culture (SKNMC-IGF2^1-67 cells; listed as Fc-domain 11AB5-RHH): inhibited
Growth of SKNMC cells expressing constitutive IGF2^1-67 in culture (SKNMC-IGF2^1-67 cells; listed as IGF2-TRAP): decreases the cell viability
Xenograft growth ([1]; listed as Fc-domain 11AB5-RHH): Reduced xenograft growth rates
Xenograft growth ([1]; listed as IGF2-TRAP): reduces IGF2 dependent xenograft growth
Total serum IGF1, Growth Hormone or IGFBP levels ([1]; Day 28): without alteration
Serum IGF2 ([1]; Day 28, listed as Fc-domain 11AB5-RHH): less evident
Serum IGF2 ([1]; Day 28, listed as IGF2-TRAP): reduced levels of serum IGF2
reduction in cell viability (SKNMC-IGF2^104 cells): 10-20%
IGF2-induced hypoglycaemia (blood glucose) ([2]; molar ratio 1:0.23): more efficient IGF2 antagonist than Fc-domain 11^AB5
IGF2-induced hypoglycaemia (blood glucose) ([2]; molar ratio 1:0.23, listed as domain 11^AB5-RHH): significantly counteracted IGF2-induced hypoglycaemia
IGF2-induced hypoglycaemia (blood glucose) ([2]; molar ratio 1:0.5): abrogation
